# Legend:
# EPHB2 = EPHB2 (UniProt P29323); assay: phosphorylation enrichment, bacterial display (enrichment ratio); higher = better substrate or ligand; peptides without Tyr show the background
# Fer (mouse) = assay: as above
# EPHB1 = EPHB1 (UniProt P54762); assay: as above
# Fes = Fes (UniProt P07332); assay: as above
# Fyn = Fyn (UniProt P06241); assay: as above
# Jak2 = Jak2 (UniProt O60674); assay: as above
# AncSZ = assay: as above
# MERTK = MERTK (UniProt Q12866); assay: as above
# FGFR3 = FGFR3 (UniProt P22607); assay: as above
# c-Abl (mouse) = assay: as above
# FGFR1 = FGFR1 (UniProt P11362); assay: as above
# Hck = Hck (UniProt P08631); assay: as above
# c-Src = assay: as above
# SHP2-C SH2 = assay: SH2 binding enrichment of the phosphorylated peptide, bacterial display (enrichment ratio); higher = better substrate or ligand; peptides without Tyr show the background
# c-Src SH2 = assay: as above
# Grb2 SH2 = Grb2 SH2 (UniProt P62993); assay: as above
# 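For SH2 binding enrichment of the phosphorylated peptide, bacterial display in this document: peptide library displayed on the E. coli surface as eCPX fusions, selected cells deep-sequenced, score is each peptide's frequency after selection divided by its frequency in the input.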
# 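For phosphorylation enrichment, bacterial display in this document: 11-residue human phosphosite peptides and single-mutation variants displayed on the E. coli surface, counted by deep sequencing, each peptide's frequency after selection divided by its frequency in the unselected input library; frequency after pTyr selection over input frequency; kinase dosed for 20-30% of maximal phosphorylation in three min.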
# Sequence of EPHB1 (P54762 whole entry, looked up): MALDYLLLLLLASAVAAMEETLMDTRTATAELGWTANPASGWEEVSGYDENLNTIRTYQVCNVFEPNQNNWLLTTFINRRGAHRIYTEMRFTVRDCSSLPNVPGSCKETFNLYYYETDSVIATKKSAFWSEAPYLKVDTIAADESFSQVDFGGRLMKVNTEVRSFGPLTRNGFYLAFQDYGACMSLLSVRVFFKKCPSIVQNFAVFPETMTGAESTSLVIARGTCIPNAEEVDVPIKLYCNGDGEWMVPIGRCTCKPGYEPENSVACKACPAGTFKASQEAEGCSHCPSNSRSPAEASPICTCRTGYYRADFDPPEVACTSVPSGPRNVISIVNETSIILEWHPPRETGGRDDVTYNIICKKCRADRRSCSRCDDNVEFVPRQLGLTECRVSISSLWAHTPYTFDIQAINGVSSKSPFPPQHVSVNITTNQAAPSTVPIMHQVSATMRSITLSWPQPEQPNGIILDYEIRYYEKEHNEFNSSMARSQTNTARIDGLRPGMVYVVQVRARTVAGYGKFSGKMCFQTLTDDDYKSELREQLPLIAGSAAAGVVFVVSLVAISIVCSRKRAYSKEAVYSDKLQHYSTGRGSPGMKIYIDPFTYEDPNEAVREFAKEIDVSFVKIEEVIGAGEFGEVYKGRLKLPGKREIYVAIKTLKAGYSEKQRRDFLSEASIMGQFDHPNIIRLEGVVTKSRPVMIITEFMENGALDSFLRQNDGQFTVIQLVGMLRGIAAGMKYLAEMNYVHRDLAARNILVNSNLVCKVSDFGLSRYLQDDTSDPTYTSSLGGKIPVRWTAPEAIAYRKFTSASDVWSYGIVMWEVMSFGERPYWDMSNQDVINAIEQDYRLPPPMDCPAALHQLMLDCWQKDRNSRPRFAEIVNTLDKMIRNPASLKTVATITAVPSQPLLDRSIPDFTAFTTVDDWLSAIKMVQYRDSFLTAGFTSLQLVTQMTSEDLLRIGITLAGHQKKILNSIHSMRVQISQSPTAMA
# Sequence of EPHB2 (P29323 whole entry, looked up): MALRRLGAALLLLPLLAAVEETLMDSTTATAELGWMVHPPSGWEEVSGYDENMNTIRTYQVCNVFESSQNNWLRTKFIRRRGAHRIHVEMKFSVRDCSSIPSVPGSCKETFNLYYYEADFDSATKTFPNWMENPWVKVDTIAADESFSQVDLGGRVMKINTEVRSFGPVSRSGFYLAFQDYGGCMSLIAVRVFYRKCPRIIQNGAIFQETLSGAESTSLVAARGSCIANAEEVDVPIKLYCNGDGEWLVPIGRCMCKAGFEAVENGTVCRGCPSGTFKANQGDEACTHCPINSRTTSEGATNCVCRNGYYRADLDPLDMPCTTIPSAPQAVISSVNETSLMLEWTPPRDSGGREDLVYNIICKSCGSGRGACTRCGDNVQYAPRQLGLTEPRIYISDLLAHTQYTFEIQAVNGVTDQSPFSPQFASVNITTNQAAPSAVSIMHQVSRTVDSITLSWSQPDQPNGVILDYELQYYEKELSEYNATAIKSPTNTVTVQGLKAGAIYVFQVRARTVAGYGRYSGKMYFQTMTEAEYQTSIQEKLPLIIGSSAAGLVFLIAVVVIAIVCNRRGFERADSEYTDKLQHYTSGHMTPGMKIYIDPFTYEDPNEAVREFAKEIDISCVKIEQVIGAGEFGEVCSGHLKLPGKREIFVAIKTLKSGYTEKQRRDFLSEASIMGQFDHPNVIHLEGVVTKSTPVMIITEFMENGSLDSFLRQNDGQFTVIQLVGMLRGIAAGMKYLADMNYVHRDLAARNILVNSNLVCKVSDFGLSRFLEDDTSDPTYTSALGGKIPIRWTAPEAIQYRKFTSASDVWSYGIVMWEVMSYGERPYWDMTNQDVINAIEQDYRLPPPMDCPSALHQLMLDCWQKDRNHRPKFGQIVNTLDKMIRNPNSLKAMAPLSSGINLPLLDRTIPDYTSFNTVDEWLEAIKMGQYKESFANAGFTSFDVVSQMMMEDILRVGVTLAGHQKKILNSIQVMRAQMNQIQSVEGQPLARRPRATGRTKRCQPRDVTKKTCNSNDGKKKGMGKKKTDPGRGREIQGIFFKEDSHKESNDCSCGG
# Sequence of Fyn (P06241 whole entry, looked up): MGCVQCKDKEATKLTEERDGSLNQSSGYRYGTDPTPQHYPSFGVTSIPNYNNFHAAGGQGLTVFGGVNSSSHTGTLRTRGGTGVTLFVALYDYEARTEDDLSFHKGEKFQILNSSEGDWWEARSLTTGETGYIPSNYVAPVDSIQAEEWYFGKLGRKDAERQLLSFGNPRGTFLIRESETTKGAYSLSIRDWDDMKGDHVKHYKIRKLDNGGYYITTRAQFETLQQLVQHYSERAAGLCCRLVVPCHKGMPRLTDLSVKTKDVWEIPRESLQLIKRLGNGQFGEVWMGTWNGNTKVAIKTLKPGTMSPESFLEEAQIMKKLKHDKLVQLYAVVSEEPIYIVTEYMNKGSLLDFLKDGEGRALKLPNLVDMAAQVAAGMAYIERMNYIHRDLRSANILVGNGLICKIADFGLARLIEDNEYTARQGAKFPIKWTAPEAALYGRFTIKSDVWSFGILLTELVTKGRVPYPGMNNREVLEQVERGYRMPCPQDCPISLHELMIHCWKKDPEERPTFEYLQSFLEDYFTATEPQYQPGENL
# Sequence of Hck (P08631 whole entry, looked up): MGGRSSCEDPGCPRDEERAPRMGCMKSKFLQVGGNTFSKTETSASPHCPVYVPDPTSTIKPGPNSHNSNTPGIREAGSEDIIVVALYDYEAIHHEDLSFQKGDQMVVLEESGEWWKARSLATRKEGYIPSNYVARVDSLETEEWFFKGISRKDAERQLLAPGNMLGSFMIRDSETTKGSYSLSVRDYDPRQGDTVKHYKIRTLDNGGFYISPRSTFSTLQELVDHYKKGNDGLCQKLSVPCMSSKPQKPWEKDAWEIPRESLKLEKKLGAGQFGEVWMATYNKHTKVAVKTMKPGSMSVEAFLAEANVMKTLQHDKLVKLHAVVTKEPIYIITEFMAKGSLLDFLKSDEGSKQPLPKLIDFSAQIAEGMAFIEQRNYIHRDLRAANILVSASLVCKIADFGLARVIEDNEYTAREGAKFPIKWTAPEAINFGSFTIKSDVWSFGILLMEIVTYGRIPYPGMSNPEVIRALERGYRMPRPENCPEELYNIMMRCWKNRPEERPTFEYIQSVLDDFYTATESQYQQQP
# Sequence of FGFR1 (P11362 whole entry, looked up): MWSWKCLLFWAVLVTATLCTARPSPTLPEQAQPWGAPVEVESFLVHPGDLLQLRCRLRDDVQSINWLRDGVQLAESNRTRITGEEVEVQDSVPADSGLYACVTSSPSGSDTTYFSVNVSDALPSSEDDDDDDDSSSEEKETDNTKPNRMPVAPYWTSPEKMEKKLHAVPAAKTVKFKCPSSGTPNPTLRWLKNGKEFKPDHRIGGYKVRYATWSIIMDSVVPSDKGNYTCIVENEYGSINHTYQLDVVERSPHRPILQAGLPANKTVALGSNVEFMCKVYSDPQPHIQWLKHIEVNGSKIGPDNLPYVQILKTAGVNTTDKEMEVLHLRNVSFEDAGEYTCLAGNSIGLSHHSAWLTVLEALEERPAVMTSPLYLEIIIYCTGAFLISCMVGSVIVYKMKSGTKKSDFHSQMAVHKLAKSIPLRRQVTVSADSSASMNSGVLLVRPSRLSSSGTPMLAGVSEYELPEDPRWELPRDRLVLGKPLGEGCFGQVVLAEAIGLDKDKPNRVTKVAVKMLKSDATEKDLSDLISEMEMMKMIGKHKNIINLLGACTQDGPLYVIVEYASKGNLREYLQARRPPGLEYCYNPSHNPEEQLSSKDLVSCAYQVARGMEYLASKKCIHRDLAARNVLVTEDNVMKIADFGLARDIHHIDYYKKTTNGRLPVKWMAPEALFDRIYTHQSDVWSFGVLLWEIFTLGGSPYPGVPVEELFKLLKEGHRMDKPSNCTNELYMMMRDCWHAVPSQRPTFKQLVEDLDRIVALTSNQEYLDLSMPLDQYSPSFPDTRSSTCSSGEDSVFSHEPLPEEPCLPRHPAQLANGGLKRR
# Sequence of Jak2 (O60674 whole entry, looked up): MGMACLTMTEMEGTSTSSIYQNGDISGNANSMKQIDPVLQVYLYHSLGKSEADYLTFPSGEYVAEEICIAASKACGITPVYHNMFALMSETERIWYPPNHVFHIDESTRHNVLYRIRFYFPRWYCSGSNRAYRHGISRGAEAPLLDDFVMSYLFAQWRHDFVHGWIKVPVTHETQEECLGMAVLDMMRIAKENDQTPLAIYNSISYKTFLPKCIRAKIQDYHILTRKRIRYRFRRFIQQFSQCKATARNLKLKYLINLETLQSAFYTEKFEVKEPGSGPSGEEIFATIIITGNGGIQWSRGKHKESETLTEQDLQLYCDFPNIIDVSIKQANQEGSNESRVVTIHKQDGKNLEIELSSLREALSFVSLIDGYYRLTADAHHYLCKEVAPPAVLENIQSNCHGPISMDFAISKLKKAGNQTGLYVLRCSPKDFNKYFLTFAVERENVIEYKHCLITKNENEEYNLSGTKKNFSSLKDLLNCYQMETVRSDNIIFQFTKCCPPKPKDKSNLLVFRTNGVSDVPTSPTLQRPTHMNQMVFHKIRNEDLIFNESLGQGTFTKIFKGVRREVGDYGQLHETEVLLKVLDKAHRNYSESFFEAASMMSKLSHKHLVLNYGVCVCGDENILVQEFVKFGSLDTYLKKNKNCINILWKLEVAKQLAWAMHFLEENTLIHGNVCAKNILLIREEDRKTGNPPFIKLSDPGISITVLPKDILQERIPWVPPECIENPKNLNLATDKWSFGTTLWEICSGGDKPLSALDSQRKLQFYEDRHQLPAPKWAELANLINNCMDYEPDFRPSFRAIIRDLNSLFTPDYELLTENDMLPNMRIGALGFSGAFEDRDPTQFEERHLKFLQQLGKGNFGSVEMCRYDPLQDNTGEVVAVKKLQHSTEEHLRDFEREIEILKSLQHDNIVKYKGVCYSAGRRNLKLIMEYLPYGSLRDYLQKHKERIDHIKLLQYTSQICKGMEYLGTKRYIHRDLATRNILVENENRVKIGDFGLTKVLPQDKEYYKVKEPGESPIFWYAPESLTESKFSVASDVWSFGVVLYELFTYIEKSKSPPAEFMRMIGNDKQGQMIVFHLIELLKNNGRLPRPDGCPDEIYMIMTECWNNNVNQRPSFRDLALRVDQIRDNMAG
SH2 binding enrichment (SHP2-C SH2),SH2 binding enrichment (c-Src SH2),SH2 binding enrichment (Grb2 SH2),Sequence,phosphorylation enrichment (EPHB2),phosphorylation enrichment (Fer (mouse)),phosphorylation enrichment (EPHB1),phosphorylation enrichment (Fes),phosphorylation enrichment (Fyn),phosphorylation enrichment (Jak2),phosphorylation enrichment (AncSZ),phosphorylation enrichment (MERTK),phosphorylation enrichment (FGFR3),phosphorylation enrichment (c-Abl (mouse)),phosphorylation enrichment (FGFR1),phosphorylation enrichment (Hck),phosphorylation enrichment (c-Src)
0.724,0.511,0.845,AHLTEYLSTHY [UQCRC1_Y219_D215H],0.396,0.371,0.462,0.639,0.402,0.647,0.716,0.464,0.585,0.475,0.475,0.517,0.453
0.782,0.699,1.05,AIFWRYSKFFD [SH3PXD2B_Y45_R43W_YF],0.52,0.49,0.493,1.35,0.444,1.16,0.839,0.323,0.805,0.959,0.445,0.41,0.326
0.362,0.631,0.603,AIGCEYSEINI [SIGLEC12_Y588_Y586C],0.797,5.32,1.24,1.27,1.79,0.924,1.94,0.492,2.99,0.928,3.95,2.42,2.47
1.58,8.56,0.656,AIGYEYSEINI [SIGLEC12_Y588],0.562,6.47,0.797,0.999,1.11,0.987,1.44,0.492,3.56,0.9,5.67,2.3,2.03
0.94,0.435,0.9,ANVIHYFPTQA [SLC25A4_Y81_R80H],0.415,0.393,0.528,0.652,0.483,0.794,0.623,0.456,0.56,0.806,0.487,0.446,0.515
0.631,0.453,0.899,ATCKAYGQALA [TKT_Y321_R318C],0.446,0.484,0.523,0.73,0.424,0.645,0.753,0.419,0.573,0.568,0.445,0.431,0.493

# Second part, the sequence before the results:
Sequence,SH2 binding enrichment (SHP2-C SH2),SH2 binding enrichment (c-Src SH2),SH2 binding enrichment (Grb2 SH2),phosphorylation enrichment (EPHB2),phosphorylation enrichment (Fer (mouse)),phosphorylation enrichment (EPHB1),phosphorylation enrichment (Fes),phosphorylation enrichment (Fyn),phosphorylation enrichment (Jak2),phosphorylation enrichment (AncSZ),phosphorylation enrichment (MERTK),phosphorylation enrichment (FGFR3),phosphorylation enrichment (c-Abl (mouse)),phosphorylation enrichment (FGFR1),phosphorylation enrichment (Hck),phosphorylation enrichment (c-Src)
AGVIIYTSRFQ [PFAS_Y538_A535V],0.794,0.49,0.791,0.631,0.574,0.636,1.42,0.649,0.87,1.05,0.429,0.792,0.522,0.679,0.664,0.578
AIIGIYILRDN [CDH23_Y2949_D2954N],1.42,0.987,1.44,0.631,0.596,0.687,1.39,0.925,1.05,1.36,0.423,0.793,0.888,0.604,1.6,1.68
AKFPFYEKNKK [FOXL2_Y91],1.38,0.981,1.31,0.467,0.304,0.407,0.806,0.405,0.655,0.589,0.436,0.533,0.545,0.441,0.443,0.415
AKLDEYIAIAK [RCOR3_Y46],0.83,0.434,0.945,0.565,0.452,0.614,0.949,0.479,0.79,0.92,0.522,0.711,0.621,0.535,0.473,0.367
ALDRPYTSKHS [NANS_Y71_E68D],0.613,0.485,0.926,0.508,0.474,0.364,0.638,0.499,0.636,0.612,0.448,0.566,0.637,0.379,0.489,0.542
ALLTKYSHSSM [DSCC1_Y374],0.488,0.406,0.76,0.643,0.56,0.442,0.737,0.578,0.542,0.651,0.436,0.587,0.727,0.45,0.485,0.528
ANNEYYFRVCA,0.461,0.402,0.646,0.759,0.469,0.895,1.4,0.471,1.53,1.4,0.439,1.94,1.08,1.89,0.657,0.526
ARKRKYFKKHE [NFIX_Y40],0.409,0.259,0.911,0.535,0.281,0.511,0.653,0.561,0.477,0.602,0.472,0.591,0.64,0.554,0.605,0.56
ARRMEYLASQK [FGFR2_Y616_G613R],0.464,0.469,1.09,0.558,0.293,0.947,0.557,0.367,0.367,0.461,0.402,0.437,0.286,0.372,0.333,0.382
ASRKYYAMKIL [AKT3_Y174_G171R],1.14,1.18,1.1,0.338,0.441,0.367,0.634,0.348,0.385,0.505,0.437,0.535,0.379,0.475,0.368,0.265
ASSPVYVPTTR [GATA6_Y188],0.71,0.433,0.876,0.479,0.406,0.397,0.539,0.429,0.44,0.525,0.493,0.428,0.524,0.323,0.646,0.51

# — the supplement of paper PMC10065799, “High-throughput profiling of sequence recognition by tyrosine kinases and SH2 domains using bacterial peptide display” (eLife, 2023)
